pKd: −log10 of the molar value. Read-outs that look alike come from different tables or passages of the source.

Our source for the EC50 (read off the curve) and Kd values is patent US11732043.

The target of assay [1] is human LAG-3 (huLAG-3), full length, expressed on the cell surface (human) (UniProt P18627). Put plainly: FACS titration on activated human T cells, detection with PE-labelled anti-IgG F(ab')2 [right panel Activated T cells].
Assay [2] shares this target.
The target is the same in assay [3]. The source holds these as a separate data set.
For assay [4] the target is unchanged. Put plainly: method of determination not stated; legend of the FACS binding figure (293FF-LAG-3 cells, activated human T-cells).

Chain of human LAG-3 (huLAG-3), full length, expressed on the cell surface (human) (P18627 23-525): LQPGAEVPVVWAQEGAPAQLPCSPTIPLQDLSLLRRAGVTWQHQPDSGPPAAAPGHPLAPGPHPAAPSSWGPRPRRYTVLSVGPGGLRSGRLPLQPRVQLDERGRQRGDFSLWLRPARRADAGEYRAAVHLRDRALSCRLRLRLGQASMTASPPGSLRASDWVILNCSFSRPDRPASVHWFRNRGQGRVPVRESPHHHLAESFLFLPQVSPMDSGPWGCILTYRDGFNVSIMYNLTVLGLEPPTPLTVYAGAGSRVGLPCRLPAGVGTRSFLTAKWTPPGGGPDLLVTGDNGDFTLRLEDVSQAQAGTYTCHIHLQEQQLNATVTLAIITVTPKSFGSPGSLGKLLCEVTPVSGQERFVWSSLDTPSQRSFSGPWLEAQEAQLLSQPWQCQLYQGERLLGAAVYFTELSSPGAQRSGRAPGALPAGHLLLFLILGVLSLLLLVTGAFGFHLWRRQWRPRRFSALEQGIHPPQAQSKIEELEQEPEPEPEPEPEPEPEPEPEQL

As usually defined, the EC50 (read off the curve) is the concentration giving half of the maximal effect. Read a low EC50 (read off the curve) as a more potent agent. The term pKd denotes −log10 of the Kd, conventionally taken in molar units. As to “PG7431, anti-LAG-3 antibody 25F7 produced in a human IgG1 format”, the EC50 (read off the curve) came to 0.04 µg/mL in assay [1], 0.1 µg/mL in assay [2] and 0.1 µg/mL in assay [3]. This substance also gave a pKd in assay [4] of 9.70.
